Measured values from patent US20160220669A1 (Hoffmann-La Roche, published 2016).
Changes are numbered by the printed parent chain.

B1: Mab 2F11 (antibody, V domains shown)
VH: QVQLKESGPGLVAPSQSLSITCTVSGFSLTTYDISWIRQSPGKGLEWLGVIWTDGGTNYNSPFMSRLSIRKDNSKSQVFLKMNRLQTDDTAIYYCVRDQRLYFDVWGAGTTVTVSS
VL: NIVMTQSPKSMSMSVGERVTLNCKASEDVNTYVSWYQQQPEQSPKLLIYGASNRYTGVPDRFTGGGSTTDFTLTISSVQAEDLADYFCGQSFSYPTFGTGTKLEIK
B2: Mab 1G10 (antibody, V domains shown)
VH: B1 VH with Q1R, T31S, T53S, D54G, S68R, R70S, N73D, K75R, M82V, Q99L
VL: KIVMTQSPKSMSVSVGERVSLSCKASEDVGTYVSWYQQKPEQSPKLLIYGSSNRYTGVPDRFTGSGSATDFTLTISSVQAEDLADYSCGQSFTYPTFGTGTKLEIK
B3: Mab 2E10 (antibody, V domains shown)
VH: QVQLKESGPGLVAPSKSLSITCTVSGSSLDSFDISWIRQSPGKGLEWLGVIWTGGGTNYNSGFMSRLRITKDNSKSQVLLKMNSLQSDDTAIYYCVRDPRLYFDVWGAGTTVTVSS
VL: B1 VL with N22S, N30V, Q39K, E41D, G65S, T68A, F87Y, S91T
B4: Mab 2H7 (antibody, V domains shown)
VH: B3 VH with S40P, T70S, L79F, N83S
VL: B1 VL with N22S, N30V, Q39K, G65S, T68A, V78I, F87Y, S91T

target: human wildtype CSF-1R (full-length) (human, UniProt P07333 20-972); assay: cell-based or functional assay

Binder | % inhibition 10 µg/ml antibody concentration (BeWo cells, CSF-1 induced growth) [%]
B1 | 70
B2 | 99
B3 | 102
B4 | 103

target: CSF-1R of cynomolgous monocytes (cynomolgous); assay: cell-based or functional assay

Binder | % survival (cynomolgous monocytes with huCSF-1, 5 µg/ml antibody) [%]
B1 | 4
B2 | 2
B3 | 17
B4 | 8
